Here are results for 22 sequences from the supplement of paper PMC9233669.

The test system of one series is biotinyl-Phe-oxazolone. Briefly: self-aminoacylation, catalytic enhancement (BFO) (fold over background); higher = more active; k-Seq, kA / k0A0; sequences stand for … in GGGAAUGGAUCCACAUCUACGAAUUC…UUCACUGCAGACUUGACGAAGCUG
The procedure, abridged:
(§1)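 Catalytic enhancement equals the median kA over the uncatalyzed rate, the latter read from the low-activity peak of a bimodal Gaussian fit. Values of kA came from fitting each sequence's fraction reacted to a pseudo-first-order model, with 1000 bootstraps. Reacted RNA was captured with streptavidin and quantified by triplicate qPCR and Illumina sequencing after 90 minutes at room temperature with 2–1250 μM biotinyl-aminoacyl-oxazolone and 0.43 μM mutagenized RNA pools bearing a 21-nt variable region.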

Another series concerns biotinyl-Leu-oxazolone. Briefly: self-aminoacylation, catalytic enhancement (BLO) (fold over background); higher = more active; k-Seq, kA / k0A0; sequences stand for … in GGGAAUGGAUCCACAUCUACGAAUUC…UUCACUGCAGACUUGACGAAGCUG
The method in brief:
as §1

Another series has as its system biotinyl-Val-oxazolone. Briefly: self-aminoacylation, catalytic enhancement (BVO) (fold over background); higher = more active; k-Seq, kA / k0A0; sequences stand for … in GGGAAUGGAUCCACAUCUACGAAUUC…UUCACUGCAGACUUGACGAAGCUG
The method in brief: as §1

Another series deals with biotinyl-Met-oxazolone. Briefly: self-aminoacylation, catalytic enhancement (BMO) (fold over background); higher = more active; k-Seq, kA / k0A0; sequences stand for … in GGGAAUGGAUCCACAUCUACGAAUUC…UUCACUGCAGACUUGACGAAGCUG
The procedure, abridged: as §1

The test system of the next series is biotinyl-Ile-oxazolone. Briefly: self-aminoacylation, catalytic enhancement (BIO) (fold over background); higher = more active; k-Seq, kA / k0A0; sequences stand for … in GGGAAUGGAUCCACAUCUACGAAUUC…UUCACUGCAGACUUGACGAAGCUG
The method in brief:
as §1

The subject of the next series is biotinyl-Trp-oxazolone. Briefly: self-aminoacylation, catalytic enhancement (BWO) (fold over background); higher = more active; k-Seq, kA / k0A0; sequences stand for … in GGGAAUGGAUCCACAUCUACGAAUUC…UUCACUGCAGACUUGACGAAGCUG
The procedure, abridged: as §1

This sample holds only a part of the variants without activity.

“AUUACCCUGGUCAGCGGGUGA [Fam2.1 aminoacylation ribozyme variant]”: the self-aminoacylation with biotinyl-Phe-oxazolone was 68.2; in the series with biotinyl-Leu-oxazolone, 10.1; in the series with biotinyl-Val-oxazolone, 6.36; with biotinyl-Met-oxazolone, 9.2; in the series with biotinyl-Ile-oxazolone it was 5.3; with biotinyl-Trp-oxazolone, 10.1.
Consider “AUUACCCUGGUCAGCGUGUGA [Fam2.1 aminoacylation ribozyme variant]”, for which the self-aminoacylation with biotinyl-Phe-oxazolone worked out at 30.9; with biotinyl-Leu-oxazolone, 5.25; with biotinyl-Val-oxazolone it was 3.59; in the series with biotinyl-Met-oxazolone it was 5.28; in the series on biotinyl-Ile-oxazolone it was 2.79; with biotinyl-Trp-oxazolone, 6.56.
For the sequence “AUUACCCUGGUCAUAGACUGA [Fam2.1 aminoacylation ribozyme variant]”, the self-aminoacylation was 0.776 in the series on biotinyl-Phe-oxazolone; 0.739 in the series with biotinyl-Leu-oxazolone; 0.991 in the series on biotinyl-Val-oxazolone; 0.586 with biotinyl-Met-oxazolone; 0.874 in the series on biotinyl-Ile-oxazolone; 0.537 in the series with biotinyl-Trp-oxazolone.
On to “AUUACCCUGGUCAUAGAGAGA [Fam2.1 aminoacylation ribozyme variant]”, for which the self-aminoacylation in the series with biotinyl-Phe-oxazolone was determined as 0.605; in the series with biotinyl-Leu-oxazolone, 0.798; in the series with biotinyl-Val-oxazolone it was 0.717; in the series on biotinyl-Met-oxazolone, 0.983; with biotinyl-Ile-oxazolone, 0.947; in the series on biotinyl-Trp-oxazolone, 0.77.
Turning to “AUUACCCUGGUCAUAGAGUUA [Fam2.1 aminoacylation ribozyme variant]”, the self-aminoacylation with biotinyl-Phe-oxazolone was determined as 0.667; in the series on biotinyl-Leu-oxazolone, 0.921; in the series with biotinyl-Val-oxazolone, 1.1; in the series on biotinyl-Met-oxazolone, 1.39; with biotinyl-Ile-oxazolone, 1.25; in the series on biotinyl-Trp-oxazolone, 0.786.
Turning to “AUUACCCUGGUCAUCAACUGA [Fam2.1 aminoacylation ribozyme variant]”, the self-aminoacylation in the series on biotinyl-Phe-oxazolone was 0.556; with biotinyl-Leu-oxazolone it was 0.851; with biotinyl-Val-oxazolone, 1.13; with biotinyl-Met-oxazolone, 0.667; in the series on biotinyl-Ile-oxazolone, 0.789; in the series on biotinyl-Trp-oxazolone, 0.571.
“AUUACCCUGGUCAUCAAGGGA [Fam2.1 aminoacylation ribozyme variant]”: the self-aminoacylation with biotinyl-Phe-oxazolone is 1.11; in the series on biotinyl-Leu-oxazolone, 0.752; in the series on biotinyl-Val-oxazolone, 1.13; with biotinyl-Met-oxazolone it was 0.807; in the series on biotinyl-Ile-oxazolone it was 0.87; in the series on biotinyl-Trp-oxazolone, 1.2.
In the case of “AUUACCCUGGUCAUCAAGUGC [Fam2.1 aminoacylation ribozyme variant]”, the self-aminoacylation with biotinyl-Phe-oxazolone is 0.434; in the series on biotinyl-Leu-oxazolone, 0.567; in the series with biotinyl-Val-oxazolone it was 0.795; in the series with biotinyl-Met-oxazolone it was 0.691; with biotinyl-Ile-oxazolone, 0.689; in the series with biotinyl-Trp-oxazolone, 0.302.
For the sequence “AUUACCCUGGUCAUCAAGUUA [Fam2.1 aminoacylation ribozyme variant]”, the self-aminoacylation in the series on biotinyl-Phe-oxazolone amounted to 0.737; in the series with biotinyl-Leu-oxazolone it was 0.646; in the series on biotinyl-Val-oxazolone, 0.681; in the series on biotinyl-Met-oxazolone, 0.684; in the series with biotinyl-Ile-oxazolone, 0.676; in the series on biotinyl-Trp-oxazolone, 0.328.
Consider “AUUACCCUGGUCAUCACGUGA [Fam2.1 aminoacylation ribozyme variant]”, for which the self-aminoacylation in the series on biotinyl-Phe-oxazolone turned out to be 52.4; in the series on biotinyl-Leu-oxazolone, 7.86; in the series with biotinyl-Val-oxazolone, 4.39; in the series with biotinyl-Met-oxazolone, 8.87; in the series with biotinyl-Ile-oxazolone, 3.08; in the series on biotinyl-Trp-oxazolone, 9.65.
Turning to “AUUACCCUGGUCAUCAUGUGA [Fam2.1 aminoacylation ribozyme variant]”, the self-aminoacylation in the series with biotinyl-Phe-oxazolone was 26.2; with biotinyl-Leu-oxazolone it was 6.36; with biotinyl-Val-oxazolone it was 3.17; in the series on biotinyl-Met-oxazolone, 6.44; in the series with biotinyl-Ile-oxazolone, 2.67; in the series on biotinyl-Trp-oxazolone, 6.97.
Consider “AUUACCCUGGUCAUCCAGUGA [Fam2.1 aminoacylation ribozyme variant]”, for which the self-aminoacylation in the series on biotinyl-Phe-oxazolone amounted to 28.1; in the series with biotinyl-Leu-oxazolone, 5.76; with biotinyl-Val-oxazolone, 3.42; with biotinyl-Met-oxazolone it was 5.67; with biotinyl-Ile-oxazolone, 3.41; in the series with biotinyl-Trp-oxazolone, 6.71.
Take “AUUACCCUGGUCAUCCAGUGG [Fam2.1 aminoacylation ribozyme variant]”: the self-aminoacylation came to 1.42 in the series on biotinyl-Phe-oxazolone; 1.68 in the series with biotinyl-Leu-oxazolone; 1.3 in the series with biotinyl-Val-oxazolone; 1.84 in the series with biotinyl-Met-oxazolone; 1.22 in the series on biotinyl-Ile-oxazolone; 1.28 in the series with biotinyl-Trp-oxazolone.
For the sequence “AUUACCCUGGUCAUCCAGUUA [Fam2.1 aminoacylation ribozyme variant]”, the self-aminoacylation turned out to be 0.726 in the series on biotinyl-Phe-oxazolone; 0.855 in the series with biotinyl-Leu-oxazolone; 1.08 in the series with biotinyl-Val-oxazolone; 0.914 with biotinyl-Met-oxazolone; 0.875 in the series with biotinyl-Ile-oxazolone; 0.433 in the series on biotinyl-Trp-oxazolone.
“AUUACCCUGGUCAUCGAAUGA [Fam2.1 aminoacylation ribozyme variant]”: the self-aminoacylation with biotinyl-Phe-oxazolone is 0.974; in the series with biotinyl-Leu-oxazolone it was 1.08; with biotinyl-Val-oxazolone, 1.06; with biotinyl-Met-oxazolone it was 1.07; with biotinyl-Ile-oxazolone, 1; in the series on biotinyl-Trp-oxazolone, 0.908.
In the case of “AUUACCCUGGUCAUCGAAUGC [Fam2.1 aminoacylation ribozyme variant]”, the self-aminoacylation in the series with biotinyl-Phe-oxazolone was 0.567; in the series with biotinyl-Leu-oxazolone it was 0.723; in the series on biotinyl-Val-oxazolone, 0.68; in the series with biotinyl-Met-oxazolone, 0.827; in the series with biotinyl-Ile-oxazolone it was 1.04; in the series on biotinyl-Trp-oxazolone, 0.726.
“AUUACCCUGGUCAUCGACUGC [Fam2.1 aminoacylation ribozyme variant]”: the self-aminoacylation in the series on biotinyl-Phe-oxazolone came out at 0.441; in the series on biotinyl-Leu-oxazolone it was 0.839; in the series on biotinyl-Val-oxazolone it was 0.722; with biotinyl-Met-oxazolone, 0.555; with biotinyl-Ile-oxazolone, 0.701; in the series on biotinyl-Trp-oxazolone it was 0.371.
As for “AUUACCCUGGUCAUCGAGCGG [Fam2.1 aminoacylation ribozyme variant]”, the self-aminoacylation in the series with biotinyl-Phe-oxazolone amounted to 1.12; with biotinyl-Leu-oxazolone it was 2.9; in the series with biotinyl-Val-oxazolone, 1.8; in the series with biotinyl-Met-oxazolone, 2.38; in the series with biotinyl-Ile-oxazolone, 1.95; in the series with biotinyl-Trp-oxazolone, 1.61.
Regarding “AUUACCCUGGUCAUCGAGGAA [Fam2.1 aminoacylation ribozyme variant]”, the self-aminoacylation turned out to be 8.38 in the series with biotinyl-Phe-oxazolone; 5.25 in the series on biotinyl-Leu-oxazolone; 2.44 with biotinyl-Val-oxazolone; 5.91 in the series on biotinyl-Met-oxazolone; 2.3 in the series with biotinyl-Ile-oxazolone; 4.88 in the series on biotinyl-Trp-oxazolone.
For the sequence “AUUACCCUGGUCAUCGAGGGC [Fam2.1 aminoacylation ribozyme variant]”, the self-aminoacylation is 1.09 in the series on biotinyl-Phe-oxazolone; 1.56 in the series with biotinyl-Leu-oxazolone; 1.24 in the series on biotinyl-Val-oxazolone; 1.77 in the series with biotinyl-Met-oxazolone; 1.31 in the series with biotinyl-Ile-oxazolone; 1.12 in the series with biotinyl-Trp-oxazolone.
For the sequence “AUUACCCUGGUCAUCGAGGUA [Fam2.1 aminoacylation ribozyme variant]”, the self-aminoacylation is 10.2 in the series with biotinyl-Phe-oxazolone; 5.68 in the series with biotinyl-Leu-oxazolone; 3.16 in the series on biotinyl-Val-oxazolone; 7.24 in the series on biotinyl-Met-oxazolone; 2.38 in the series with biotinyl-Ile-oxazolone; 5.45 with biotinyl-Trp-oxazolone.
As to “AUUACCCUGGUCAUCGAGUAA [Fam2.1 aminoacylation ribozyme variant]”, the self-aminoacylation in the series on biotinyl-Phe-oxazolone is 118; with biotinyl-Leu-oxazolone, 26.7; in the series with biotinyl-Val-oxazolone it was 10.1; with biotinyl-Met-oxazolone, 28.9; in the series with biotinyl-Ile-oxazolone, 8.7; in the series with biotinyl-Trp-oxazolone, 25.3.
